These results are taken from PMC9300723.

In the test the target is F5M-σ^A1.1^(S2C), fluorescein-labelled σ1.1 domain of Pae σ^A (Pseudomonas aeruginosa). Nature of the test: fluorescence polarisation; 2 nM fluorescein-labelled σ1.1 domain, Pae RNAP core enzyme 0-4096 nM; 10 mM Tris-HCl pH 7.7, 100 mM NaCl, 1 mM DTT, 1% glycerol, 0.025% Tween-20; 10 min at room temperature. For orientation: Fluorescence polarisation rises when a labelled molecule tumbles more slowly, as on binding a larger partner.

As a reminder, the Kd is a measure of binding affinity in units of concentration. Lower therefore signals a tighter complex.

For “Pae RNAP core enzyme (from UniProt O52760 1-333; Q51561 1-1357; Q9HWC9 2-1399; B7V5M8 1-88) (complex)”, the dissociation constant (Kd) came to 0.22 µM.
